# Results from US20190233522A1, “NEW DOSAGE REGIMENS FOR ANTIBODY DRUG CONJUGATES BASED ON ANTI-AXL ANTIBODIES” (GENMAB A/S, priority 2016, published 2019).
# Experiments:
# [1] = tested on: LCLC-103H xenograft tumors; assay: Therapeutic treatment of SC LCLC-103H tumor xenografts (Example 3); assay type: in vivo, SCID mice; settings: for tumor volume versus control IgG1-b12: day 30, One Way ANOVA (Dunnett's); for anti-tumor activity in established SC LCLC-103H tumors: single i.p. injection 1 mg/kg, SCID mice
# Protocol: The in vivo efficacy of MMAE-conjugated anti-AXL antibodies was determined in established subcutaneous (SC) LCLC-103H xenograft tumors in SCID mice. 5×10^6 LCLC-103H (large cell lung carcinoma) tumor cells (obtained from Leibniz-Institut DSMZ-Deutsche Sammlung von Mikroorganismen and Zellkulturen GmbH (DSMZ)) in 200 μL PBS were injected subcutaneously in the right flank of female SCID mice. Starting 14-21 days after tumor cell inoculation, when the average tumor size was >100-200 mm^3 and distinct tumor growth was observed, a single injection with 1 mg/kg (20 μg/mouse) IgG1-AXL-vcMMAE antibodies or control (unconjugated IgG1-b12) was given intraperitoneally (100 μL/mouse). Tumor volume was determined at least two times per week. Tumor volumes (mm^3) were calculated from caliper (PLEXX) measurements as: 0.52×(length)×(width)^2.
# [2] = tested on: A431 tumors; assay: A431 xenograft model (high Gas6); assay type: in vivo; settings: 3 mg/kg i.p., SCID mice
# Protocol: (§1) Tumor induction was performed by subcutaneous injection of 5×10^6 A431 or LCLC-103H tumor cells (both obtained from Leibniz-Institut—Deutsche Sammlung von Mikroorganismen and Zellkulturen GmbH (DSMZ)) in 200 μL PBS in the right flank of female SCID mice. Treatment was started 14-21 days after tumor cell inoculation, when the average tumor size was >100-200 mm^3 and distinct tumor growth was observed. Mice received a single injection or a total of 4 biweekly intraperitoneal injections with IgG1-AXL-vcMMAE ADCs or control antibody (unconjugated IgG1-b12), as indicated. Tumor volume was determined at least two times per week. Tumor volumes (mm^3) were calculated from caliper (PLEXX) measurements as: 0.52×(length)×(width)^2.
# [3] = tested on: CEXF 773 tumors; assay: Cervix carcinoma PDX model CEXF 773; assay type: in vivo, NMRI nu/nu mice; settings: for anti-tumor activity on CEXF 773 tumors: 4 mg/kg i.v. day 0 and day 7; for average tumor size versus IgG1-b12 and IgG1-b12-vcMMAE: day 28, 4 mg/kg i.v. day 0 and 7, p<0.001
# Protocol: The anti-tumor activity of IgG1-AXL-183-vcMMAE and IgG1-AXL-726-vcMMAE was evaluated in the patient derived cervix carcinoma xenograft CEXF 773 model in NMRI nu/nu mice (Harlan, Netherlands). Experiments were performed by Oncotest (Freiburg, Germany).
# Tumor fragments were obtained from xenografts in serial passage in nude mice. After removal from donor mice, tumors were cut into fragments (4-5 mm diameter) and placed in PBS (with 10% penicillin/streptomycin) until subcutaneous implantation. Mice under isofluorane anesthesia received unilateral, subcutaneous tumor implants in the flank. Tumors were allowed to grow until the tumor volume was 50-250 mm^3.
# The treatment groups were: IgG1-b12, IgG1-b12-vcMMAE, IgG1-AXL-183-vcMMAE and IgG1-AXL-726-vcMMAE. The antibodies and ADCs were dosed intravenously (i.v.) at 4 mg/kg on the day of randomization (day 0) and on day 7. Tumor volumes (mm^3) were monitored twice weekly and were calculated from caliper (PLEXX) measurements as: 0.52×(length)×(width)^2.
# [4] = tested on: LCLC-103H tumors; assay: LCLC-103H xenograft model (low Gas6, Example 5); assay type: in vivo; settings: 3 mg/kg i.p., SCID mice
# Protocol: as §1
# [5] = tested on: MDA-MB-231 tumors; assay: Orthotopic MDA-MB-231 D3H2LN breast cancer xenograft model; assay type: in vivo, SCID mice; settings: for anti-tumor activity on MDA-MB-231 tumors: 4 biweekly doses of 3 mg/kg; for average tumor size versus IgG1-b12 and IgG1-b12-vcMMAE: day 32, 4 biweekly doses of 3 mg/kg, P<0.001 One Way Anova
# Protocol: The anti-tumor activity of IgG1-AXL-183-vcMMAE and IgG1-AXL-726-vcMMAE was evaluated in an orthotopic MDA-MB-231 D3H2LN xenograft model.
# MDA-MB-231-luc D3H2LN Bioware cells (mammary gland adenocarcinoma; Perkin Elmer, Waltham, Mass.) were implanted in the mammary fat pad of 6-11 week old, female SCID (C.B-17/IcrPrkdc-scid/CRL) mice (Charles-River) under isofluorane anesthesia. Tumors were allowed to grow and mice were randomized when tumors reached a volume of ˜325 mm^3. […] The treatment groups were: IgG1-b12, IgG1-b12-vcMMAE, IgG1-AXL-183-vcMMAE and IgG1-AXL-726-vcMMAE. The animals received a total of 4 biweekly doses of 3 mg/kg antibody or ADC starting at the day of randomization. Tumor volumes (mm^3) were monitored twice weekly and were calculated from caliper (PLEXX) measurements as: 0.52×(length)×(width)^2.
# [6] = tested on: PAXF1657 tumors; assay: PAXF1657 pancreas cancer PDX model; assay type: in vivo, NMRI nu/nu mice
# Protocol: Human pancreas tumor tissue was subcutaneously implanted in the left flank of 5-7 weeks old female NMRI nu/nu mice. […] At day of randomization (day 0), the 3 ADCs were dosed intravenously (i.v.) at either 4 mg/kg or 2 mg/kg, and the control group received a single dose of IgG1-b12 (4 mg/kg). Tumor volumes (mm^3) were monitored twice weekly and were calculated from caliper (PLEXX) measurements as: 0.52×(length)×(width)^2.
# [7] = Pre-clinical PK studies in cynomolgus monkey; assay type: in vivo
# Source text: Data from 5 in-vivo pre-clinical studies, shown in the Table below, were provided, containing measurements of the plasma ADC level, plasma IgG level, and plasma MMAE level (only measured in study 5).
# All studies appeared to show a significant drop in plasma concentrations of ADC/IgG after the 2nd dose when compared to the first dose, which corresponded with an ADA response. As this is a fully human antibody, ADA response are only very rarely expected to occur in humans. Therefore, only data after the first dose were included in the data preparation and subsequently modelled.
molecule,measurement,setting,value
"IgG1-AXL-183-N52Q-vcMMAE: anti-AXL antibody 183-N52Q (VH SEQ ID No 17, VL SEQ ID No 18) conjugated to vcMMAE (conjugate, vc-MMAE conjugate; homo sapiens) VH: QVQLQQWGAGLLKPSETLSLTCAVYGGSFSGYYWSWIRQPPGKGLEWIGEIQQSGSTNYNPSLKSRVTISVDTSKNQFSLKLSSVTAADTSVYYCASGNWDHFFDYWGQGTLVTVSS VL: DIQMTQSPSSVSASVGDRVTITCRASQGISSWLAWYQHKPGKAPKLLIYATSSLQSGVTSRFSGSGSGTDFTLTISSLQPEDFATYYCQQAKSFPWTFGQGTKVEIK",tumor volume versus control IgG1-b12,[1]; 1 mg/kg single i.p.,not significant affected
same,anti-tumor activity in established SC LCLC-103H tumors,[1],no or only minor tumor growth inhibition
IgG1-AXL-183-vcMMAE: anti-AXL antibody 183 (FN1-binder) conjugated to vcMMAE (conjugate) VH: QVQLQQWGAGLLKPSETLSLTCAVYGGSFSGYYWSWIRQPPGKGLEWIGEINQSGSTNYNPSLKSRVTISVDTSKNQFSLKLSSVTAADTSVYYCASGNWDHFFDYWGQGTLVTVSS VL: DIQMTQSPSSVSASVGDRVTITCRASQGISSWLAWYQHKPGKAPKLLIYATSSLQSGVTSRFSGSGSGTDFTLTISSLQPEDFATYYCQQAKSFPWTFGQGTKVEIK,anti-tumor activity on A431 tumors,[2],induced growth inhibition
same,anti-tumor activity on CEXF 773 tumors,[3],induced tumor regression
same,average tumor size versus IgG1-b12 and IgG1-b12-vcMMAE,[3],significantly smaller
same,anti-tumor activity in the LCLC-103H xenograft model,[4],induced tumor regression
same,anti-tumor activity on MDA-MB-231 tumors,[5],induced tumor regression
same,average tumor size versus IgG1-b12 and IgG1-b12-vcMMAE,[5],significantly smaller
"IgG1-AXL-733-vcMMAE: anti-AXL antibody 733 (VH SEQ ID No 34, VL SEQ ID No 35) conjugated to vcMMAE (conjugate, vc-MMAE conjugate; homo sapiens) VH: QVQLVESGGGVVQPGRSLRLSCAASGFSFSTYAMHWVRQAPGKGLEWVAVISYDGDNKYSADSVKGRFTISRDNSKNTLYLQMNSLRAEDTAVYYCARGRKLGIDAFDIWGQGTMVTVSS VL: AIQLTQSPSSLSASVGDRVTITCRASQGISSALAWYQQKPGKAPKLLIYDASSLESGVPSRFSGSGSGTDFTLTISGLQPEDFATYYCQQFNSYPFTFGPGTKVDIK",anti-tumor activity on A431 tumors,[2],induced growth inhibition
same,complete tumor reduction,[1]; 1 mg/kg single i.p.,in some mice within these groups to complete tumor reduction
same,tumor volume versus control IgG1-b12,[1]; 1 mg/kg single i.p.,highly significant difference
same,anti-tumor activity in established SC LCLC-103H tumors,[1],induced tumor regression
same,growth of PAXF1657 tumors compared to the control group,"[6]; 2 mg/kg i.v., day 0",significantly reduced the growth
same,anti-tumor activity on PAXF1657 tumors,"[6]; 4 mg/kg i.v., day 0",induced tumor regression
same,average tumor size versus isotype control IgG1-b12,"[6]; day 14, 2 mg/kg or 4 mg/kg, p<0.001 Tukey's multiple comparison test",significantly smaller
"IgG1-AXL-148 (antibody, V domains shown) VH: EVQLLESGGGLVQPGGSLRLSCAASGFTFSSYAMTWVRQAPGKGLEWVSAISISGGSTFYADSVKGRFTISRDNSKNTLYLQMNSLRAEDTAVYYCRGYSGYVYDAFDFWGQGTMVTVSS VL: DIQMTQSPSSLSASVGDRVTITCRASQGISNWLAWYQQKPEKAPKSLIYAASSLQSGVPSRFSGSGSGTDFTLTISSLQPEDFATYYCQQYNSYPLTFGGGTKVEIK","pharmacokinetic properties, unconjugated antibody (study 3) versus ADC (study 2)",[7],similar
same,anti-tumor activity in the PAXF1657 model,[6]; dose not given,did not result in anti-tumor activity
"IgG1-AXL-511-vcMMAE: anti-AXL antibody 511 (VH SEQ ID No 136, VL SEQ ID No 140) conjugated to vcMMAE (conjugate, vc-MMAE conjugate; homo sapiens) VH: EVQLLESGGGLVQPGGSLRLSCAASGFTFSSYAMNWVRQAPGKGLEWVSGISGSGGHTYHADSVKGRFTISRDNSKNTLYLQMNSLRAEDTAVYYCAKDRYDILTGYYNLLDYWGQGTLVTVSS VL: DIQMTQSPSSLSASVGDRVTITCRASQGISSWLAWYQQKPEEAPKSLIYAASSLQSGVPSRFSGSGSGTDFTLTISSLQPEDFATYYCQQYNSYPLTFGGGAKVEIK",tumor volume versus control IgG1-b12,[1]; 1 mg/kg single i.p.,significant tumor growth inhibition
same,anti-tumor activity in established SC LCLC-103H tumors,[1],induced tumor growth inhibition
"IgG1-AXL-726-M101L-vcMMAE: anti-AXL antibody 726-M101L (VH SEQ ID No 32, VL SEQ ID No 33) conjugated to vcMMAE (conjugate, vc-MMAE conjugate; homo sapiens) VH: QVQLQQWGAGLLKPSETLSLTCAIDGGSFSGYYWSWIRQPPGKGLEWIGEISHSGRTNYNPSLKSRVTISIDTSKNQFSLKLSSVAAADTAVYYCARFITLIRGAIITHFDYWGQGALVTVSS VL: DIQMTQSPSSLSASVGDRVTITCRASQGISSWLAWYQQKPEKAPKSLIYAASSLQSGVPSRFSGSGSGTDFTLTISSLQPEDFATYYCQQYHSYPYTFGQGTKLEIK",tumor volume versus control IgG1-b12,[1]; 1 mg/kg single i.p.,not significant affected
same,anti-tumor activity in established SC LCLC-103H tumors,[1],no or only minor tumor growth inhibition
IgG1-AXL-726-vcMMAE: anti-AXL antibody 726 (FN2-binder) conjugated to vcMMAE (conjugate) VH: QVQLQQWGAGLLKPSETLSLTCAIDGGSFSGYYWSWIRQPPGKGLEWIGEISHSGRTNYNPSLKSRVTISIDTSKNQFSLKLSSVAAADTAVYYCARFITMIRGAIITHFDYWGQGALVTVSS VL: DIQMTQSPSSLSASVGDRVTITCRASQGISSWLAWYQQKPEKAPKSLIYAASSLQSGVPSRFSGSGSGTDFTLTISSLQPEDFATYYCQQYHSYPYTFGQGTKLEIK,anti-tumor activity on A431 tumors,[2],induced growth inhibition
same,anti-tumor activity on CEXF 773 tumors,[3],induced tumor regression
same,average tumor size versus IgG1-b12 and IgG1-b12-vcMMAE,[3],significantly smaller
same,anti-tumor activity in the LCLC-103H xenograft model,[4],induced tumor regression
same,anti-tumor activity on MDA-MB-231 tumors,[5],induced tumor regression
same,average tumor size versus IgG1-b12 and IgG1-b12-vcMMAE,[5],significantly smaller
